# Test results published in publication PMC12723162, “Alphaherpesvirus pUL21 homologs use non-canonical sequences to compete with cellular adaptors for protein phosphatase 1 binding” (The Journal of Biological Chemistry, 2025).
# Substitutions are numbered along the chain they refer to. Names and notes keep the numbering of the source. “Also recorded” adds a separate entry of the source. Primed or numbered codes have the meaning given here. Where no end group is shown, it is not given here. FITC′ = fluorescein isothiocyanate; Ahx = NCCCCCC(=O)O
# B1: pUL21-RVxF-H6 (natural protein)
# chain: MELSYATTMHYRDVVFYVTTDRNRAYFVCGGCVYSVGRPCASQPGEIAKFGLVVRGTGPDDRVVANYVRSELRQRGLQDVRPIGEDEVFLDSVCLLNPNVSSELDVINTNDVEVLDECLAEYCTSLRTSPGVLISGLRVRAQDRIIELFEHPTIVNVSSHFVYTPSPYVFALAQAHLPRLPSSLEALVSGLFDGIPAPRQPLDAHNPRTDVVITGRRAPRPIAGSGAGSGGAGAKRVTFSEFVQVKHIDRVGPAGVSPAPPPNNTDSSSLVPGAQDSAPPGPTLRELWWVFYAADRALEEPRADSGLTREEVRAVRGFREQAWKLFGSAGAPRAFIGAALGLSPLQKLAVYYYIIHRERRLSPFPALVRLVGRYTQRHGLYVPRPDDPVLADAINGLFRDALAAGTTAEQLLMFDLLPPKDVPVGSDVQADSTALLRFIESQRLAVPGGVISPEHVAYLGAFLSVLYAGRGRMSAATHTARLTGVTSLVLAVGDVDRLSAFDRGAAGAASRTRAAGYLDVLLTVRLARSQHGQSV
# notes: methods, results and legend print V239F; also called pUL21 A237V + V239F (RVxF) mutant; source: E. coli T7 Express lysY/Iq, purified (Ni-NTA, SEC); not shown: His6, C-terminal, kept
# B2: pUL21-GFP (protein)
# chain: B1 chain with V237A, F239V
# modifications: left off: GFP (from the vector pEGFP-N1), end not stated, kept
# B3: pUL21-RVxF: pUL21-H6 with mutations A237V and V239F (protein)
# chain: B1 chain
# modifications: left off: His6, C-terminal, kept
# notes: pUL21-H6 with mutations A237V and V239F
# B4: pORF38-NLT-H6 (domain or fragment)
# chain: MEFPYHSTVSYNGVTFYFNERATRAYFICGGCLISIPRKHGGEIAKFGHVVRGVGPGDRSVASYVRSELNRTGKTWAVSSNNNCVFLDRVALLAAGSGAVDRDLCGTFDVEVEDPTLADYLVSLPVTHLTLVAGVDVTRENKLKLFPTPTAINTTNGFMYVPNEASFSLVYMRMLELPESLQELVSGLFDGTPEIRDALNGSNDDEKTSIIVSRRAADVVTEDVKADDVPISGEPYSEKQPRRRKKSDHITLSNFVQIRTIPR
# notes: VZV pORF38 residues 1-263: N-terminal domain plus linker up to the end of the TROPPO motif (NLT region); Sub-cloned into the vector pOPTnH; also called pOPF38-NLT; source: E. coli T7 Express lysY/Iq, purified (Ni-NTA, SEC); not shown: His6, C-terminal, kept
# B5: GADD34 RVxF+ϕϕ[xF] peptide (residues 552–568), FITC-labelled (peptide)
# peptide: {FITC′-Ahx}-KARKVRFSEKVTVHFLA
# notes: GADD34 (PP1 regulatory subunit 15A), residues 552-568, RVxF and ϕϕ[xF] motifs; also called fluorescent GADD34 peptide; GADD34 peptide; source: synthetic peptide (GenScript, >95% purity)
# Key:
# [1] = target: T1, PP1γ catalytic domain (residues 7–300)-H6 (mouse, UniProt P63087 7-300); assay: fluorescence polarisation; competition: increasing pUL21 added to a pre-formed complex of 2 nM FITC-GADD34 peptide and 250 nM PP1γ catalytic domain; Tris pH 8.5 in place of HEPES pH 8; conditions: both partners purified
# T1 construct: mouse PP1γ catalytic domain, residues 7-300; no tag cleavage is described; also called PP1 catalytic domain; protein phosphatase 1; source: E. coli T7 Express lysY/Iq, purified (Ni-NTA, SEC)
# T1 sequence (P63087 7-300): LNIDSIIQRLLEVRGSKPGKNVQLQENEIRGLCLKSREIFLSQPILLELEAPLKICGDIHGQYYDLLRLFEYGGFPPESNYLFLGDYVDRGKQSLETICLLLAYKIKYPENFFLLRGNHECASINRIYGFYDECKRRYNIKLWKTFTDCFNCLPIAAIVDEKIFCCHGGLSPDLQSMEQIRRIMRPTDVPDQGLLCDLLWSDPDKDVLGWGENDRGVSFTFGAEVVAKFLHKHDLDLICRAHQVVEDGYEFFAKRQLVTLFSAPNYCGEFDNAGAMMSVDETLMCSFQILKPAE
# [2] = tested on: endogenous PP1α; assay: GFP affinity capture / co-IP of endogenous PP1α with GFP-tagged bait; format: binding, human; conditions: HEK 293T cells, 24 h post-transfection, GFP-Trap, immunoblot; representative of two independent experiments
# [3] = tested on: endogenous PP1α; conditions: HEK 293T cells; cited from earlier work
# Description: (§1) HSV-1 pUL21 was recently identified as a novel viral PP1 regulatory protein that promotes virus replication and spread. HSV-1 pUL21 and its homologues across the alphaherpesviruses comprise two folded domains ([21], [22]) that are linked by a flexible linker domain ([23]). PP1 binding to pUL21 requires a novel SLiM, termed the Twenty-one Recruitment Of Protein Phosphatase One (TROPPO) motif, that is present in the linker region and is conserved across alphaherpesviruses.
# [4] = tested on: endogenous PP1β; conditions: HEK 293T cells; cited from earlier work
# Description: as §1
# [5] = tested on: endogenous PP1γ; conditions: HEK 293T cells; cited from earlier work
# Description: as §1
# [6] = target: T2, PP1γ catalytic domain : GADD34 peptide pre-formed complex (Mus musculus, UniProt P63087); assay: Competition fluorescence anisotropy in Tris pH 8.5 buffer; format: binding; conditions: 2 nM fluorescent GADD34 peptide + 250 nM PP1γ
# T2 construct: mouse PP1γ catalytic domain (residues 7–300)-H6; His6 (C); made in house; host or cells: E. coli T7 Express lysY/Iq (PP1γ); tracer peptide synthesised by GenScript
# T2 sequence (P63087 7-300, one chain of several): as the sequence (P63087 7-300) above
# Protocol: Similar competition fluorescence anisotropy experiments with purified full-length pUL21 (Fig. 5E) were performed in a buffer optimized to enhance solubility of the protein (Tris pH 8.5 in place of HEPES pH 8). […] To test whether optimization of the TROPPO sequence to better match a canonical RVxF motif could enhance binding, we generated, expressed and purified a pUL21-H6 mutant where residues A237 and V239 had been substituted for valine and phenylalanine, respectively (pUL21-RVxF, Fig. 5E).
# Bacterial expression plasmids encoding the mouse PP1γ catalytic domain (residues 7–300)-H6 and pUL21-H6, and mammalian expression vectors encoding pUL21(FV242AA)-GFP, pORF38-GFP and pORF38(FV255AA)-GFP, were described previously ([23]). We note that the mouse and human PP1γ catalytic domains share 100% amino acid identity. pORF38-NLT-H6 was generated by sub-cloning residues 1 to 263 of ORF38 into the vector pOPTnH ([52]). pUL21-RVxF-H6 was generated by inserting the mutations A237V and V239F into pUL21-H6 by QuikChange site-directed mutagenesis. Human PP1α was cloned from HeLa cell cDNA into a vector derived from pF5K (Promega) with an N-terminal Myc epitope tag via restriction-based cloning, and point mutations were introduced into Myc-PP1α by QuikChange mutagenesis. […]
# Proteins were expressed using E. coli T7 Express lysY/I^q cells (New England Biolabs) grown in 2 × TY medium at 37 °C to OD600 0.8 to 1.2 before cooling to 22 °C and induction of protein expression using 0.4 mM IPTG. […] Fractions were analysed by SDS-PAGE and those containing the desired protein were pooled, concentrated using centrifugal concentrators (Millipore) and stored at 4 °C (short-term) or snap-frozen in liquid nitrogen for long-term storage at −70 °C.
# Fluorescence anisotropy was measured using a SpectraMax i3 microplate reader (Molecular Devices) with wavelengths 485 ± 20 nm (excitation) and 535 ± 25 nm (emission). […]
# [7] = target: T1, PP1γ catalytic domain (residues …); assay: ITC; 25 °C; 50 mM HEPES pH 8.0, 500 mM NaCl, 0.5 mM TCEP; 12 x 3 μl injections; peptide or pORF38-NLT titrated into PP1γ catalytic domain; one-site binding model; syringe and cell contents in Table S1; conditions: both partners purified
# [8] = target: T1, PP1γ catalytic domain (residues …); assay: fluorescence polarisation; competition: serial dilution of competitor added to a pre-formed complex of 2 nM FITC-GADD34 peptide and 250 nM PP1γ catalytic domain (final); 50 mM HEPES pH 8.0, 500 mM NaCl, 0.05% TWEEN-20; 27 °C; conditions: both partners purified
# [9] = target: T1, PP1γ catalytic domain (residues …); assay: fluorescence polarisation; direct titration of PP1γ catalytic domain against FITC-GADD34 peptide in the buffer optimised for pUL21 (Tris pH 8.5 in place of HEPES pH 8); conditions: both partners purified
# [10] = target: T1, PP1γ catalytic domain (residues …); assay: fluorescence polarisation; direct titration: 2 nM FITC-GADD34 peptide with a serial dilution of PP1γ catalytic domain; 50 mM HEPES pH 8.0, 500 mM NaCl, 0.05% TWEEN-20; 27 °C; one-site binding model; conditions: both partners purified
molecule,measurement,setting,value
B1,IC50,[1],337 nM
B2,Co-IP of endogenous PP1α,[2],efficiently precipitate endogenous PP1α
same,Co-precipitation of endogenous PP1α,[3],"co-precipitates with endogenous PP1α, PP1β and PP1γ"
same,Co-precipitation of endogenous PP1β,[4],"co-precipitates with endogenous PP1α, PP1β and PP1γ"
same,Co-precipitation of endogenous PP1γ,[5],"co-precipitates with endogenous PP1α, PP1β and PP1γ"
B3,Competition with GADD34 peptide for PP1 binding,[6],competes with the GADD34 peptide for binding to the PP1 hydrophobic groove; also recorded: the ability to compete with the GADD34 peptide for PP1 binding
B4,Kd,[7],497 nM
same,stoichiometry N,[7],1
same,IC50,[8],417 nM
B5,Kd,[9],55 nM
same,Kd,[10],144 nM
